Broadly, the Kd is the constant that tells how readily two partners part at equilibrium. Low values mean tighter binding, high ones weaker binding.

The text below walks through data of paper PMC13065503.

For this data set, the target named is ArtiMYC (3) (UniProt P01106). As to the kind of experiment: EMSA. Conditions: EMSA: 20 mM HEPES pH 8.0, 150 mM NaCl, 5% glycerol, 1 mM EDTA, 2 mM MgCl2, 0.5 mg/mL BSA, 1 mM DTT, 0.05% NP-40; 4 nM DNA; 30 min RT then 15 min on ice; 10% ….
Sequence of ArtiMYC (3) (P01106 365-454): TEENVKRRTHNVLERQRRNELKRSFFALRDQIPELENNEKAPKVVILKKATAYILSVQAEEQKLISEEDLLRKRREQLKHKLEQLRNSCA

The sequence “ACCCCACCACGTGGTGCCT (double strand) [E-box DNA]” gave a dissociation constant (Kd) of 24 nM.
